Measured values taken from patent US20200199217A1 (published 2020).
Changes are numbered by the printed parent chain. Each block holds one binder with its values, some of them ahead of it.

Assays:
hu-IL-36α [1] = biological target: T1, hu-IL-36α (human, UniProt Q9UHA7 6-158); experiment: cell-based or functional assay
T1 sequence: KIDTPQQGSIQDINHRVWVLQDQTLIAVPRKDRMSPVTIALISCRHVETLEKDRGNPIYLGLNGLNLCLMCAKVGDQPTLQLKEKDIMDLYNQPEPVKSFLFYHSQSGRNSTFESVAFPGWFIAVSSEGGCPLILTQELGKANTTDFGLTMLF

hu-IL-36γ [2] = biological target: T2, hu-IL-36γ (human, UniProt Q9NZH8 18-169); experiment: cell-based or functional assay
T2 sequence: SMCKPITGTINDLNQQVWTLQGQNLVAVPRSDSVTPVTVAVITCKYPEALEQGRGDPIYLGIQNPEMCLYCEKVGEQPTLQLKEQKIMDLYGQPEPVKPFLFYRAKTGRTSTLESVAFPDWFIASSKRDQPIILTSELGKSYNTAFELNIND

cy-IL-36γ = biological target: T3, cy-IL-36γ (cynomolgus monkey, UniProt Q9NZH8 18-167 (human entry), limits assumed); experiment: cell-based or functional assay
T3 chain: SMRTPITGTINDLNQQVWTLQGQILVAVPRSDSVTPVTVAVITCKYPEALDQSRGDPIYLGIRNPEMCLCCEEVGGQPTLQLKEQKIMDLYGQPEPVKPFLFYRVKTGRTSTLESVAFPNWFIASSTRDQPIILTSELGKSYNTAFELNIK

cy-IL-36α = biological target: T4, cy-IL-36α (cynomolgus monkey, UniProt Q9UHA7 14-158 (human entry), limits assumed); experiment: cell-based or functional assay
T4 chain: T1 sequence with I2S, D3E, T4M, Q7P, G8V, T24I, M34V, A40S, V74A

hu-IL-36β [3] = biological target: T5, hu-IL-36β (human); experiment: SPR (Biacore 8K), biotinylated hu-IL-36β captured, Fab injected, 37 C
T5 construct: Used biotinylated in SPR and some ELISAs; treated here as the same molecule; also called human IL-36β; IL-36b
T5 chain: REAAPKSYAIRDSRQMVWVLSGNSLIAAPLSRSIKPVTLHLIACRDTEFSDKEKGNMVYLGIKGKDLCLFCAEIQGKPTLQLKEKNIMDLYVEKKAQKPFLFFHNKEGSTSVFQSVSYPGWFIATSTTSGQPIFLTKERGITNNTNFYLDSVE
Procedure: Briefly, a 1:4 dilution of Biotin CAPture Reagent (GE) into HBS-EP buffer (0.01 M HEPES pH 7.4, 0.15 M NaCl, 3 mM EDTA, 0.005% Surfactant P20) was applied to a CAP sensor chip at 2 uL/min flow rate. For kinetics measurements, 6 nM biotinylated human IL-36β was captured at 10 uL/min to achieve ˜50 response units in the second flow cell (FC2). FC1 was kept as a reference. Next, […] serial dilutions of Fab in HBS-P buffer (0.01M HEPES pH 7.4, 0.15M NaCl, 0.005% surfactant P20) from low (3.125 nM) to high (200 nM) were injected (flow rate: 10 uL/min) at 37° C. The sensorgram was recorded and subject to reference and buffer subtraction before evaluating by BIACORE® 8K Evaluation Software (version 1.1.1.7442). Association rates (kₒₙ) and dissociation rates (koff) were calculated using a simple one-to-one Langmuir binding model.

hu-IL-36β [4] = biological target: T5, hu-IL-36β; experiment: cell-based or functional assay
cy-IL-36β = biological target: T6, cy-IL-36β (cynomolgus monkey); experiment: cell-based or functional assay
T6 chain: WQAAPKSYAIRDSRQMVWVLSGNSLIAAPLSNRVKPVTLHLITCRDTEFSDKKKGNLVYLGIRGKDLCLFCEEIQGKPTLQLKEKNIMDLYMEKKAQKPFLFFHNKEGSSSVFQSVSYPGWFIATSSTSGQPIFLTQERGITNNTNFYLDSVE

hu-IL-36β [5] = biological target: T5, hu-IL-36β; experiment: cell-based or functional assay
hu-IL-36α [6] = biological target: T1, hu-IL-36α; experiment: cell-based or functional assay; remark: listed apart in the source
hu-IL-36γ [7] = biological target: T2, hu-IL-36γ; experiment: cell-based or functional assay; remark: listed apart in the source

B1: mAb2.0 IgG (antibody, V domains shown)
VH: QLQLQESGPGLVKPSETLSLTCTVSGGSISTSSYYWGWIRQPPGKGLEWIGSIYYTGNTYYNPSLKSRVTISVDTSKNQFSLKLSSVTAADTAVYYCARVRYGVGVPRYFDPWGQGTLVTVSS
VL: QSVLTQPPSVSGAPGQRVTISCTGSSSNIGAHYDVHWYQQLPGTAPKLLIYGNDNRPSGVPDRFSGSKSGTSASLAITGLQAEDEADYYCQSYDYSLSGYVFGGGTKLTVLG
IC50, HEK Blue SEAP reporter assay (hu-IL-36α [1]): 5.7 nM | IC50, HEK Blue SEAP reporter assay (hu-IL-36γ [2]): 7.5 nM | IC50, HEK Blue SEAP reporter assay with cynomolgus IL-36 on human IL-36 receptor (cy-IL-36γ): 1.71 nM | IC50, HEK Blue SEAP reporter assay with cynomolgus IL-36 on human IL-36 receptor (cy-IL-36α): 0.56 nM

B4: anti-IL-36 multispecific antibody mAb2.10/mAb6_2.7 (bispecific antibody, human IgG1, lambda, N297G)
heavy 1: not shown
heavy 2: not shown
light: ESVLTQPPSVSGAPGQRVTISCTGSSSNIGAHYDVHWYQQLPGTAPKLLIYGNDNRPSGVPDRFSGSKSGTSASLAITGLQAEDEADYYCQSYDYSLSGYVFGGGTKLTVLGQPKAAPSVTLFPPSSEELQANKATLVCLISDFYPGAVTVAWKADSSPVKAGVETTTPSKQSNNKYAASSYLSLTPEQWKSHKSYSCQVTHEGSTVEKTVAPTECS
percent of IL-8 production in HaCat cells inhibited at 8 nM antibody (hu-IL-36β [5]): 100% | percent of IL-8 production in primary human adult keratinocytes inhibited at 8 nM antibody (hu-IL-36β [5]): 100% | percent of IL-8 production in HaCat cells inhibited at 8 nM antibody (hu-IL-36α [6]): 100% | percent of IL-8 production in primary human adult keratinocytes inhibited at 8 nM antibody (hu-IL-36α [6]): 100% | percent of IL-8 production in HaCat cells inhibited at 8 nM antibody (hu-IL-36γ [7]): 100% | percent of IL-8 production in primary human adult keratinocytes inhibited at 8 nM antibody (hu-IL-36γ [7]): 100%

The next lines start with the values.

kon (hu-IL-36β [3]): 850000 M⁻¹ s⁻¹
B2: mAb6_2.6 Fab (Fab, V domains shown)
VH: ELQLQESGPGLVKPSETLSLTCTVSGGSITASNYYWGWIRQPPGKGLEWIGSIDYTGSTYYEPSLKSRVTISVDTSKNQFSLKLSSVTAADTAVYYCATGNYYETYLGFDVWGQGTLVTVSS
VL: ESVLTQPPSVSGAPGQRVTISCTGSSSNIGAHYDVHWYQQLPGTAPKLLIYGNDNRPSGVPDRFSGSKSGTSASLAITGLQAEDEADYYCQSYDYSLSGYVFGGGTKLTVL
notes: Recombinant Fab with 8xHis tag

IC50, HEK Blue SEAP reporter assay (hu-IL-36β [4]): 0.64 nM | IC50, HEK Blue SEAP reporter assay with cynomolgus IL-36 on human IL-36 receptor (cy-IL-36β): 1.96 nM | blocking potency relative to the natural antagonist IL-36Ra, HaCat IL-8 assay (hu-IL-36β [5]): 1000 fold
B3: mAb6.0 IgG (antibody, V domains shown)
VH: B2 VH with E1Q, A31S, E62N, T99R, N101K
VL: QESVLTQPPSVSGAPGQRVTISCTGSSSNIGAGYDVHWYQQLPGTAPKLLIYGNTNRPSGVPDRFSGSKSGTSASLAITGLQAEDEADYYCQSYDISLSGWVFGGGTKLTVLG
